Starred links: 1 amine or outer side, 2 acyl side, 3 side chain; linkers in the order of their positions; H or OH if unused. Non-standard residues stand in square brackets, D forms with d. Groups on a side chain read outwards from the residue. No end group written: not given here. *: point of attachment. C18 diacid = O=C(O)CCCCCCCCCCCCCCCCC(=O)*; γGlu = O=C(O)[C@H](CCC(=O)[*:2])N[*:1]; 4Pal = N[C@@H](Cc1ccncc1)C(=O)O; αMeL = CC(C)C[C@](C)(N)C(=O)O; Dab = NCC[C@H](N)C(=O)O; AEEA = NCCOCCOCC(=O)O; Aib = CC(C)(N)C(=O)O
T1: human GIP receptor (human) (UniProt P48546)
T1 sequence (looked up): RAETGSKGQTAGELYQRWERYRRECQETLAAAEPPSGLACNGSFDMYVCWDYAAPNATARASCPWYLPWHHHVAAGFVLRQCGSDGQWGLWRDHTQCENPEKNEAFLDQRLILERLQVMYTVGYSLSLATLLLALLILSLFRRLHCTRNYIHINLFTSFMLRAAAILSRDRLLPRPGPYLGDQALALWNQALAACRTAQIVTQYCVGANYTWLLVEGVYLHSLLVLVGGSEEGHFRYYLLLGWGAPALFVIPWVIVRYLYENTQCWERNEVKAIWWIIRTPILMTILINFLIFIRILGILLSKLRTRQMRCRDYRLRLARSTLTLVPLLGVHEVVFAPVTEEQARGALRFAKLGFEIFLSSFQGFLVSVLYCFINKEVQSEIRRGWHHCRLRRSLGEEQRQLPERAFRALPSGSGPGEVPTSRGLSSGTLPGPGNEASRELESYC


What was measured:
Test in all cases: cell-based or functional assay
hGLP-1R = hGLP-1R (Homo sapiens, UniProt P43220)
[1] = biological target: T1, human GIP receptor (human)
[2] = biological target: human GLP-1R (SNAP-GLP-1R expressed in HEK293 cells) (human) (UniProt P43220)
[3] = biological target: human glucagon receptor (human) (UniProt P47871)
Sequence of human glucagon receptor (human) (P47871 26-477): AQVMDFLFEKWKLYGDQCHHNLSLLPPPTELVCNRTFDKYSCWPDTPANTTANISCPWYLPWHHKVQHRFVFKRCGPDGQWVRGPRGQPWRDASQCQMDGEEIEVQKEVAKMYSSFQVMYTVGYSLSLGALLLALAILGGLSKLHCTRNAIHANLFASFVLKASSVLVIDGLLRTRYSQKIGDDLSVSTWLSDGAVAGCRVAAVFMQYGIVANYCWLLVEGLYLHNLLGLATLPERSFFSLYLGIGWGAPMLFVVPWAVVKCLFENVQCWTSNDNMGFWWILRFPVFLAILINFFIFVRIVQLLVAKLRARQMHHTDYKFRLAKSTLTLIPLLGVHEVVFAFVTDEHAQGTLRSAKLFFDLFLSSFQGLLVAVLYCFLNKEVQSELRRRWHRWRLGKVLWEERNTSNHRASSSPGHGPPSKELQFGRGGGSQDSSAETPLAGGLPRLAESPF

Sequence of hGLP-1R (P43220 24-463): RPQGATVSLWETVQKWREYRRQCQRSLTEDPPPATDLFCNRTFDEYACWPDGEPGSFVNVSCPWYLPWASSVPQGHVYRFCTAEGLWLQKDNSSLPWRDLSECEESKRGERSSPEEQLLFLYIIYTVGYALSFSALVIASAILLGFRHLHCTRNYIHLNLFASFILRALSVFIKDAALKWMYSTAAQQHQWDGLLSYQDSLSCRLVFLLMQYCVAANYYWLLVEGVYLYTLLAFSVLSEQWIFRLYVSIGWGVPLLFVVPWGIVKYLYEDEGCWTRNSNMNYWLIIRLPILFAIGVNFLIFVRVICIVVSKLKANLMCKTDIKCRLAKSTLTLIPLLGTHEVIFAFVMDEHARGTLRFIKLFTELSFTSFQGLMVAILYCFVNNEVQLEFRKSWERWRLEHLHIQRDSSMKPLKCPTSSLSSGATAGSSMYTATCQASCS
Sequence of human GLP-1R (SNAP-GLP-1R expressed in HEK293 cells) (human) (P43220 24-463): as above

| Binder | Relative cAMP EC50, nM (0.1% casein) (hGLP-1R) [nM] | cAMP Rel EC50, nM (1% HSA) (hGLP-1R) [nM] | Relative cAMP EC50, nM (0.1% casein) [1] [nM] | cAMP Rel EC50, nM (1% HSA) [1] [nM] | GLP1R Internalization EC50 [2] [nM] | Internalization % TOP [2] [%] | Relative cAMP EC50, nM (0.1% casein) [3] [nM] | cAMP Rel EC50, nM (1% HSA) [3] [nM] | Relative cAMP EC50 (hGLP-1R) [nM] | Relative cAMP EC50 [1] [nM] | Relative cAMP EC50 [3] [nM] |
| --- | --- | --- | --- | --- | --- | --- | --- | --- | --- | --- | --- |
| Y[Aib]QGTFTSD[4Pal]S[Dab][αMeL]LDKK([AEEA-γGlu-C18 diacid])AQ[Aib]AFIEYLIE[Aib]GESSGAPPPSGS-NH2 [Example 188] | 3.43 | 436 | 0.193 | 43.8 | 44.7 | 40.2 | 10.8 | 2920 |  |  |  |
| YXQGTFTSDFSXXLDKKAQXAFIEYLLEXGESSGAPPPSGS (synthetic construct; SITE 2: note = 2-Aminoisobutyric Acid; SITE 12: note = L-ornithine; SITE 13: note = alpha-methyl-leucine; SITE 17: note = Lysine is chemically modified through conjugation of the epsilon-amino group of the Lysine side chain with (2-[2-(2-Amino-ethoxy)-ethoxy]-acetyl)2-(gamma-Glu)) [Example 179] | 5.81 | 904 | 0.104 | 21.3 | 63.4 | 48.4 | 4.82 | 1440 |  |  |  |
| YXQGTFTSDXSQXLDKKAQXAFIEYLIEXGESSGAPPPSGE (acylated; synthetic construct; SITE 2: note = 2-Aminoisobutyric Acid; SITE 10: note = 3-(4-Pyridyl)-L-alanine; SITE 13: note = alpha-methyl-leucine; SITE 17: note = Lysine is chemically modified through conjugation of the epsilon-amino group of the Lysine side chain with (2-[2-(2-Amino-ethoxy)-ethoxy]-acetyl)) [Example 227] |  | 418 |  | 39.7 | 114 | 59.4 |  | 937 | 2.34 | 0.17 | 4.22 |
| YXQGTFTSDFSXXLDKKAQXAFIEYLLEAGPSSGAPPPSGX (acylated; synthetic construct; SITE 2: note = 2-Aminoisobutyric Acid; SITE 12: note = L-ornithine; SITE 13: note = alpha-methyl-leucine; SITE 17: note = Lysine is chemically modified through conjugation of the epsilon-amino group of the Lysine side chain with (2-[2-(2-Amino-ethoxy)-ethoxy]-acetyl)-(gamma-Glu)) [Example 211] |  | 234 |  | 20.6 | 57.4 | 26.9 |  | 370 | 1.23 | 0.116 | 2.05 |
| YXQGTFTSDFSXXLDKKAQXAFIEYLLEAGPSSGAPPPSGT (not fully specified; acylated; synthetic construct; SITE 2: note = 2-Aminoisobutyric Acid; SITE 12: note = L-ornithine; SITE 13: note = alpha-methyl-leucine; SITE 17: note = Lysine is chemically modified through conjugation of the epsilon-amino group of the Lysine side chain with (gamma-Glu)2-CO-(CH2)16-CO2H; SITE 20: note = 2-Am) [Example 204] |  | 306 |  | 16.7 | 66.4 | 45.5 |  | 572 | 2.34 | 0.181 | 6.92 |
| YXQGTFTSDXSQXLDKKAQXAFIEYLIEXGESSGAPPPSGS (acylated; synthetic construct; SITE 2: note = 2-Aminoisobutyric Acid; SITE 10: note = 3-(4-Pyridyl)-L-alanine; SITE 13: note = alpha-methyl-leucine; SITE 17: note = Lysine is chemically modified through conjugation of the epsilon-amino group of the Lysine side chain with (2-[2-(2-Amino-ethoxy)-ethoxy]-acetyl)) [Example 226] |  | 354 |  | 32.2 | 29.1 | 59.3 |  | 763 | 1.97 | 0.127 | 3.08 |
| YXQGTFTSDFSXXLDKKAQXAFIEYLLEXGXSSGAPPPSGE (synthetic construct; SITE 2: note = 2-Aminoisobutyric Acid; SITE 12: note = L-ornithine; SITE 13: note = alpha-methyl-leucine; SITE 17: note = Lysine is chemically modified through conjugation of the epsilon-amino group of the Lysine side chain with (2-[2-(2-Amino-ethoxy)-ethoxy]-acetyl)2-(gamma-Glu)) [Example 189] | 4.46 | 423 | 0.0695 | 22.2 | 103 | 45.8 | 6.28 | 853 |  |  |  |
| YXQGTFTSDFSXXLDKKAQXAFIEYLLEXGXSSGAPPPSGS (synthetic construct; SITE 2: note = 2-Aminoisobutyric Acid; SITE 12: note = L-ornithine; SITE 13: note = alpha-methyl-leucine; SITE 17: note = Lysine is chemically modified through conjugation of the epsilon-amino group of the Lysine side chain with (2-[2-(2-Amino-ethoxy)-ethoxy]-acetyl)2-(gamma-Glu)) [Example 183] | 5.03 | 295 | 0.0759 | 13.7 | 100 | 45.4 | 3.83 | 504 |  |  |  |
| YXQGTFTSDFSXXLDKKAQXAFIEYLLEAGPSSGAPPPSGT (not fully specified; acylated; synthetic construct; SITE 2: note = 2-Aminoisobutyric Acid; SITE 12: note = L-ornithine; SITE 13: note = alpha-methyl-leucine; SITE 17: note = Lysine is chemically modified through conjugation of the epsilon-amino group of the Lysine side chain with (gamma-Glu)3-CO-(CH2)16-CO2H; SITE 20: note = 2-Am) [Example 205] |  | 234 |  | 24.4 | 49.4 | 67.7 |  | 397 | 2.71 | 0.16 | 8.98 |
| YXQGTFTSDFSXXLDKKAQXAFIEYLLEXGPSSGAPPPSGT (acylated lipid side chain; synthetic construct; SITE 2: note = 2-Aminoisobutyric Acid; SITE 12: note = L-ornithine; SITE 13: note = alpha-methyl-leucine; SITE 17: note = Lysine is chemically modified through conjugation of the epsilon-amino group of the Lysine side chain with (2-[2-(2-Amino-ethoxy)-ethoxy]-acetyl)-(gamma-Glu)) [Example 200] |  | 395 |  | 13.7 | 86.1 | 39.2 |  | 360 | 3.19 | 0.0739 | 2.83 |
| YXQGTFTSDFSXXLDKKAQXAFIEYLLEXGHSSGAPPPSGS (synthetic construct; SITE 2: note = 2-Aminoisobutyric Acid; SITE 12: note = L-ornithine; SITE 13: note = alpha-methyl-leucine; SITE 17: note = Lysine is chemically modified through conjugation of the epsilon-amino group of the Lysine side chain with (2-[2-(2-Amino-ethoxy)-ethoxy]-acetyl)2-(gamma-Glu)) [Example 181] | 4.39 | 365 | 0.133 | 12.7 | 116 | 47.5 | 6.25 | 772 |  |  |  |

— US20240270821A1, “GIP/GLP1/GCG TRI-RECEPTOR AGONISTS AND USES THEREOF” (priority 2023, published 2024)
